Experimental data: the supplement of paper PMC12783771
Substitutions are numbered along the chain they refer to. ± gives the standard deviation of the averaged measurements.

B1: library; a variant is named by its letters at X, in order (parent)
chain: MNIQIGELAKRTACPVVTIRFYEQEGLLPPPGRSRGNFRLYGEEHVERLQFIRHCRSLDMPLSXVRTLLSYRKRPDQDCGEVXMLLDEHXRQVESRIGALLELXHXLVELREACSGARPAQSCGILQGLSDCVCDTRGTTAHXSD
B2: library; a variant is named by its letters at X, in order (parent)
chain: B1 chain with X90I, X106H, L107X, G128X, D131X, D135X

Experiments:
[1] = variants of: B1; assay: sfGFP reporter fluorescence (15 h) (µM FITC); higher = higher leak; conditions: library round: Round 3b; ligand: none
Procedure: (§1)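 Cell-free biosensing: 1 µL Echo-assembled CFE reactions with linear PbrR variant templates (5 nM) and pPbrR-sfGFP reporter, with 1 µM Pb, 30 µM Zn or no ligand; endpoint sfGFP fluorescence after 15 h at 30 °C calibrated as µM FITC. Round 3b rational combinatorial PbrR mutants; 3 biological replicates.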

[2] = variants of: B1; assay: sfGFP reporter fluorescence (15 h) (µM FITC); higher = stronger transcriptional activation; conditions: library round: Round 3b
Procedure: as §1

[3] = variants of: B2; assay: sfGFP reporter fluorescence (15 h) (µM FITC); higher = higher leak; conditions: library round: Round 3; ligand: none
Procedure: (§2)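 Cell-free biosensing: 1 µL Echo-assembled CFE reactions with linear PbrR variant templates (5 nM) and pPbrR-sfGFP reporter, with 1 µM Pb, 30 µM Zn or no ligand; endpoint sfGFP fluorescence after 15 h at 30 °C calibrated as µM FITC. Round 3 ML-predicted PbrR mutants; up to 3 biological replicates.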

[4] = variants of: B2; assay: sfGFP reporter fluorescence (15 h) (µM FITC); higher = stronger transcriptional activation; conditions: library round: Round 3
Procedure: as §2

Variant | sfGFP reporter fluorescence [1] | sfGFP reporter fluorescence ([2]; ligand: 1 µM Pb) | sfGFP reporter fluorescence ([2]; ligand: 30 µM Zn) | sfGFP reporter fluorescence [3] | sfGFP reporter fluorescence ([4]; ligand: 1 µM Pb) | sfGFP reporter fluorescence ([4]; ligand: 30 µM Zn)
KIATET | 0.0659 ± 0.0015 | 1.15 ± 0.065 | 0.0663 ± 0.0026 | – | – | –
KIATER | 0.06373 ± 0.00019 | 1.25 ± 0.078 | 0.0603 ± 0.0035 | – | – | –
KNAVET | 0.0522 ± 0.0014 | 0.261 ± 0.01 | 0.223 ± 0.016 | – | – | –
KNAVER | 0.0532 ± 0.0015 | 0.334 ± 0.025 | 0.313 ± 0.04 | – | – | –
KNAVEP | 0.0529 ± 0.0031 | 0.235 ± 0.021 | 0.211 ± 0.024 | – | – | –
DIATHT | 0.0414 ± 0.0019 | 0.103 ± 0.0068 | 0.0451 ± 0.0014 | – | – | –
DIATHR | 0.0464 ± 0.003 | 0.0989 ± 0.0066 | 0.0456 ± 0.0036 | – | – | –
DIAVHR | 0.0454 ± 0.0066 | 0.104 ± 0.0012 | 0.0493 ± 0.0043 | – | – | –
DIAVHT | 0.0457 ± 0.0036 | 0.102 ± 0.0083 | 0.0483 ± 0.0036 | – | – | –
DNAVER | 0.0468 ± 0.0035 | 0.0511 ± 0.0015 | 0.062 ± 0.0046 | – | – | –
DNAVET | 0.0438 ± 0.0014 | 0.0536 ± 0.0031 | 0.0603 ± 0.0036 | – | – | –
KNATHT | 0.0681 ± 0.0016 | 0.443 ± 0.015 | 0.764 ± 0.13 | – | – | –
KNATHR | 0.0571 ± 0.0019 | 0.412 ± 0.041 | 0.602 ± 0.08 | – | – | –
DNIKHP | 0.043 ± 0.0052 | 0.0535 ± 0.0032 | 0.281 ± 0.018 | – | – | –
KNKLGDAP P61N L62I V108E | – | – | – | 0.0795 ± 0.0049 | 0.275 ± 0.019 | 1.08 ± 0.098
KNICMDDP M60L | – | – | – | 2.28 ± 0.1 | 3.14 ± 0.26 | 3.216 ± 0.027
DNKCMDAK P61D | – | – | – | 0.53 ± 0.072 | 0.903 ± 0.12 | 2.24 ± 0.45
DNKCMDAK P61N | – | – | – | 2.25 ± 0.34 | 2.76 ± 0.33 | 3.11 ± 0.2
DNRCGAAP | – | – | – | 1.21 ± 0.066 | 2.35 ± 0.047 | 2.34 ± 0.039
DNRCMDAK D87E | – | – | – | 1.06 ± 0.069 | 2.46 ± 0.12 | 2.56 ± 0.13
KIVCMDDP | – | – | – | 0.424 ± 0.064 | 1.96 ± 0.25 | 1.78 ± 0.059
LCKCGAAP H54C C55P H106L | – | – | – | 0.0458 ± 0.0017 | 0.0424 ± 0.0028 | 0.0474 ± 0.0026

Variant | sfGFP reporter fluorescence [1] | sfGFP reporter fluorescence ([2]; ligand: 1 µM Pb) | sfGFP reporter fluorescence ([2]; ligand: 30 µM Zn) | sfGFP reporter fluorescence [3] | sfGFP reporter fluorescence ([4]; ligand: 1 µM Pb) | sfGFP reporter fluorescence ([4]; ligand: 30 µM Zn)
LIKCGAAP H54C C55P H106L | – | – | – | 0.0448 ± 0.0034 | 0.0419 ± 0.0013 | 0.0486 ± 0.0017
TIVLGDDR H106A | – | – | – | 0.0524 ± 0.0029 | 0.448 ± 0.023 | 0.0673 ± 0.0027
KIVLGDDR H106E | – | – | – | 0.0556 ± 0.0015 | 0.573 ± 0.037 | 0.0612 ± 0.0023
KFVLGDDA H106A | – | – | – | 0.0507 ± 0.0013 | 0.541 ± 0.028 | 0.104 ± 0.0043
DNKCMDAA D87E | – | – | – | 0.936 ± 0.1 | 2.16 ± 0.15 | 2.28 ± 0.19
DNVCMDDP Y41F P61N | – | – | – | 0.828 ± 0.023 | 2.98 ± 0.34 | 2.92 ± 0.049
KFVLGDDP P61T H106A | – | – | – | 0.0442 ± 0.0014 | 0.0637 ± 0.0021 | 0.0488 ± 0.0034
DNRCIDDP M60L P61N | – | – | – | 0.808 ± 0.044 | 1.53 ± 0.025 | 2.29 ± 0.32
KNVCGDDP M60L P61S | – | – | – | 1.34 ± 0.11 | 3.29 ± 0.12 | 2.58 ± 0.36
KNKCMDDP M60L P61D | – | – | – | 3.01 ± 0.32 | 3.17 ± 0.26 | 3.28 ± 0.24
DCVLGDDP V16C H54A | – | – | – | 0.0426 ± 0.0029 | 0.127 ± 0.0026 | 0.0484 ± 0.0029
KNVCIDDP M60L P61N | – | – | – | 0.453 ± 0.036 | 1.86 ± 0.087 | 2.32 ± 0.15
KNVEGDDP M60L P61N | – | – | – | 0.043 ± 0.00089 | 0.0385 ± 0.00085 | 0.047 ± 0.0012
KNVCGDDP M60L E81A | – | – | – | 2.61 ± 0.12 | 3.41 ± 0.23 | 2.76 ± 0.4
LILCGAAC V16C H54C C55P H106A | – | – | – | 0.0452 ± 0.0039 | 0.0421 ± 0.0021 | 0.0492 ± 0.0021
DNVLGDDY H54A H142C | – | – | – | 0.0421 ± 0.0015 | 0.0519 ± 0.0017 | 0.136 ± 0.0031
DNKCIDAK M84A G124A | – | – | – | 0.548 ± 0.043 | 2.01 ± 0.13 | 2.75 ± 0.23
KNVLMDDP M60L P61N | – | – | – | 0.606 ± 0.027 | 1.64 ± 0.097 | 2.45 ± 0.11
DNKCGAAY | – | – | – | 1.05 ± 0.072 | 2.12 ± 0.14 | 2.26 ± 0.041
DNKCGADY M60L | – | – | – | 1.36 ± 0.092 | 1.92 ± 0.1 | 2.58 ± 0.11
DCKLGADY V16C H106A | – | – | – | 0.0446 ± 0.0041 | 0.232 ± 0.014 | 0.0501 ± 0.00089
DNKCGSAY | – | – | – | 0.873 ± 0.033 | 2.1 ± 0.24 | 2.35 ± 0.2
